We go through three variants from publication PMC10958042.

The chains are these.
B1: ATGL (PNPLA2, patatin-like phospholipase domain-containing protein 2), human, full length / G0S2 (G0/G1 switch protein 2), human (parent)
chain 1: MFPREKTWNISFAGCGFLGVYYVGVASCLREHAPFLVANATHIYGASAGALTATALVTGVCLGEAGAKFIEVSKEARKRFLGPLHPSFNLVKIIRSFLLKVLPADSHEHASGRLGISLTRVSDGENVIISHFNSKDELIQANVCSGFIPVYCGLIPPSLQGVRYVDGGISDNLPLYELKNTITVSPFSGESDICPQDSSTNIHELRVTNTSIQFNLRNLYRLSKALFPPEPLVLREMCKQGYRDGLRFLQRNGLLNRPNPLLALPPARPHGPEDKDQAVESAQAEDYSQLPGEDHILEHLPARLNEALLEACVEPTDLLTTLSNMLPVRLATAMMVPYTLPLESALSFTIRLLEWLPDVPEDIRWMKEQTGSICQYLVMRAKRKLGRHLPSRLPEQVELRRVQSLPSVPLSCAAYREALPGWMRNNLSLGDALAKWEECQRQLLLGLFCTNVAFPPEALRMRAPADPAPAPADPASPQHQLAGPAPLLSTPAPEARPVIGALGL
chain 2: METVQELIPLAKEMMAQKRKGKMVKLYVLGSVLALFGVVLGLMETVCSPFTAARRLRDQEAAVAELQAALERQALQKQALQEKGKQQDTVLGGRALSNRQHAS

Variants of B1 are the subject of the experiment. As to the kind of experiment: LUMIER: Protein A-ATGL variant and firefly luciferase-partner co-expressed in HEK293T, lysates immunoprecipitated on IgG-coated plates, co-precipitated partner measured as luciferase luminescence. Particulars: with G0S2 (G0/G1 switch protein 2), transient co-transfection, IgG-coated LUMITRAC plates, 2 h at 4 °C, three PBS washes, Bright-Glo luciferase reagent, triplicates per assay, two …, scale: log2 fold change of co-immunoprecipitated luminescence relative to wild-type ATGL within each experiment.

chain 1 MFPREKTWNISFAGCGFLGVYYVGVASCLREHAPFLVANATHIYGASAGALTATALVTGVCLGEAGAKFIEVSKEARKRFLGPLHPSFNLVKIIRSFLLKVLPADSHEHASGRLGISLTRVSDGENVIISHFNSKDELIQANVCSGFIPVYCGLIPPSLQGVRYVDGGISDNLPLYELKNTITVSPFSGESDICPQDSSTNIHELRVTNTSIQFNLRNLYRLSKALFPPEPLVLREMCKQGYRDGLRFLQRNGLLNRLNPLLALPPARPHGPEDKDQAVESAQAEDYSQLPGEDHILEHLPARLNEALLEACVEPTDLLTTLSNMLPVRLATAMMVPYTLPLESALSFTIRLLEWLPDVPEDIRWMKEQTGSICQYLVMRAKRKLGRHLPSRLPEQVELRRVQSLPSVPLSCAAYREALPGWMRNNLSLGDALAKWEECQRQLLLGLFCTNVAFPPEALRMRAPADPAPAPADPASPQHQLAGPAPLLSTPAPEARPVIGALGL [chain 1 P258L]: the screen value is, setting by setting: (parent: 0.26, not graded) -1.36; (parent: 0.56, not graded) -1.64.

Regarding chain 1 MFPREKTWNISFAGCGFLGVYYVGVASCLREHAPFLVANATHIYGASAGALTATALVTGVCLGEAGAKFIEVSKEARKRFLGPLHPSFNLVKIIRSFLLKVLPADSHEHASGRLGISLTRVSDGENVIISHFNSKDELIKANVCSGFIPVYCGLIPPSLQGVRYVDGGISDNLPLYELKNTITVSPFSGESDICPQDSSTNIHELRVTNTSIQFNLRNLYRLSKALFPPEPLVLREMCKQGYRDGLRFLQRNGLLNRPNPLLALPPARPHGPEDKDQAVESAQAEDYSQLPGEDHILEHLPARLNEALLEACVEPTDLLTTLSNMLPVRLATAMMVPYTLPLESALSFTIRLLEWLPDVPEDIRWMKEQTGSICQYLVMRAKRKLGRHLPSRLPEQVELRRVQSLPSVPLSCAAYREALPGWMRNNLSLGDALAKWEECQRQLLLGLFCTNVAFPPEALRMRAPADPAPAPADPASPQHQLAGPAPLLSTPAPEARPVIGALGL [chain 1 Q140K], the screen value is 0.195 (parent: 0.26, not graded) and -0.175 (parent: 0.56, not graded).

Regarding chain 1 MFPREKTWNISFAGCGFLGVYYVGVASCLREHAPFLVANATHIYGASAGALTATALVTGVCLGEAGAKFIEVSKEARKRFLGPLHPSFNLVKIIRSFLLKVLPADSHEHASGRLGISLTRVSDGENVIISHFNSKDELIAANVCSGFIPVYCGLIPPSLQGVRYVDGGISDNLPLYELKNTITVSPFSGESDICPQDSSTNIHELRVTNTSIQFNLRNLYRLSKALFPPEPLVLREMCKQGYRDGLRFLQRNGLLNRPNPLLALPPARPHGPEDKDQAVESAQAEDYSQLPGEDHILEHLPARLNEALLEACVEPTDLLTTLSNMLPVRLATAMMVPYTLPLESALSFTIRLLEWLPDVPEDIRWMKEQTGSICQYLVMRAKRKLGRHLPSRLPEQVELRRVQSLPSVPLSCAAYREALPGWMRNNLSLGDALAKWEECQRQLLLGLFCTNVAFPPEALRMRAPADPAPAPADPASPQHQLAGPAPLLSTPAPEARPVIGALGL [chain 1 Q140A], the screen value turned out to be 0.0979 (parent: 0.26, not graded) and 0.734 (parent: 0.56, not graded).
